Source: patent US20110243934A1

Biological target: EphA3 antigen (UniProt P29320)
Test: ELISA

UniProt P29320, sequence (P29320 21-541 limits assumed): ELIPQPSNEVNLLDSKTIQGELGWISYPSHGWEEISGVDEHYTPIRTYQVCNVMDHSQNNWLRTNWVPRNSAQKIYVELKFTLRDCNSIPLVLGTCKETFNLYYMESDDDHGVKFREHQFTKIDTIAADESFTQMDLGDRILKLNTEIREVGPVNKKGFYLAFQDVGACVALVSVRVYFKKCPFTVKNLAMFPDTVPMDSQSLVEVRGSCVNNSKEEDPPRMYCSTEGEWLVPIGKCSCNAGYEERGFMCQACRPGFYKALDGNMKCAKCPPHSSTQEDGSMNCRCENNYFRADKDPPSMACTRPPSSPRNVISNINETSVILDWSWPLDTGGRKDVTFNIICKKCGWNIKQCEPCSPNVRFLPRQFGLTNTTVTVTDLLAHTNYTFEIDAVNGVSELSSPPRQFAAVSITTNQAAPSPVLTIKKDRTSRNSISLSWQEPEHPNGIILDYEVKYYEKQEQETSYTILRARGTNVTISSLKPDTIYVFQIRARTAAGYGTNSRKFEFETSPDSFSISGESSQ

Substance: monoclonal antibody IIIA4
- AFFINITY: 2.5 nM
